According to patent US20040063656A1:

Target: wild type human VEGFR-3 (Flt4), long form (human) (UniProt P35916)
Test: cell-based or functional assay

Chain of UniProt P35916 (P35916 25-1363 limits assumed): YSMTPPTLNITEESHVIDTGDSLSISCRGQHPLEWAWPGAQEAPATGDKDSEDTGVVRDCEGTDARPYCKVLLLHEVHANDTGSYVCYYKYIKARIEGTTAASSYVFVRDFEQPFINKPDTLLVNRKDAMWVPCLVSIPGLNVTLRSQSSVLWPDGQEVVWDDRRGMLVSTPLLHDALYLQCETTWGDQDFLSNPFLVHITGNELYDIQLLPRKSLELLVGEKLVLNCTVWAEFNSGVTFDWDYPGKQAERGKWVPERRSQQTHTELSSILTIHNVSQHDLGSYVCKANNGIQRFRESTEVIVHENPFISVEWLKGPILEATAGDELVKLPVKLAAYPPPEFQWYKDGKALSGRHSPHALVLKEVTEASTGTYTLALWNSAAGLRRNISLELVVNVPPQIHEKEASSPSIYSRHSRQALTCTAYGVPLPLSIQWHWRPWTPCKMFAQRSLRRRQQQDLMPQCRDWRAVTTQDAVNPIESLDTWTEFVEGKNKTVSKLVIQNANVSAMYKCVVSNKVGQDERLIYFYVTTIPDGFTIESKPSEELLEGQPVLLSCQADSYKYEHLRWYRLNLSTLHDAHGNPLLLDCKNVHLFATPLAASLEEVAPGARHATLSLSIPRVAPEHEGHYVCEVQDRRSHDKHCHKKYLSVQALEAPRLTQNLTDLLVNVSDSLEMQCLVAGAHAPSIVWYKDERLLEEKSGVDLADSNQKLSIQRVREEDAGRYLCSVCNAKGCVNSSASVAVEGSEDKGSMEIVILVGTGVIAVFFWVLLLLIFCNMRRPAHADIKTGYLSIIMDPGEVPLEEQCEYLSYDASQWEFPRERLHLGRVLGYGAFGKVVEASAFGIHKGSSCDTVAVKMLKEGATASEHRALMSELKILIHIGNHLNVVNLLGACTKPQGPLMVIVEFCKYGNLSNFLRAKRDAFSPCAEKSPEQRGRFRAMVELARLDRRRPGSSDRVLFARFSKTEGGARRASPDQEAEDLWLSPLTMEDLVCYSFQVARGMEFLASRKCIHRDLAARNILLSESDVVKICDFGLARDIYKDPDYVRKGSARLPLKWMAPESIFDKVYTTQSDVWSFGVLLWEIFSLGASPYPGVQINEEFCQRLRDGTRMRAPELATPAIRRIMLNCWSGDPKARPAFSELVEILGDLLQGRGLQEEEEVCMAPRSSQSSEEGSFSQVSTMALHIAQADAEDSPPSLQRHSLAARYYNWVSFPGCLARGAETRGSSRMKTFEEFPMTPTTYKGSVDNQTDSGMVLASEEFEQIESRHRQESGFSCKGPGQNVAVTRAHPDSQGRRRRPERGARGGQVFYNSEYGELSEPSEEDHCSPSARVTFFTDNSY

tyrosine phosphorylation of VEGFR-3 (immunoprecipitation and anti-phosphotyrosine Western blot), 293T cells co-transfected with 75% of WT and 25% of mutant plasmid: 90 % decrease
tyrosine phosphorylation of VEGFR-3 (immunoprecipitation and anti-phosphotyrosine Western blot), wild type and mutant vectors co-transfected at a 1:1 ratio (% of the wild type alone): 4
Substance: P1114L mutant of human VEGFR-3 (long form) (from UniProt P35916 25-1363) (receptor)
